The target of assay [1] is Amb a 1 specific IgE (in serum). The experiment in a line: competition ELISA: soluble competitor pre-incubated with serum, IgE binding to plate-coated Amb a 1. (ELISA stands for enzyme-linked immunosorbent assay.)
The target in assay [2] is IgE on basophils of ragweed allergic patients. In words: cell-based or functional assay.
Assay [3] concerns the target Amb a 1 specific IgE (in serum). The experiment in a line: competition ELISA, ratio against soluble Amb a 1 as reference.
For assay [4] the target is unchanged. In words: competition ELISA: soluble competitor pre-incubated with serum, IgE binding to plate-coated Amb a 1; two lots gave the same value.

B1: ragweed allergen Amb a 1 (protein, UniProt P27759 26-396, looked up)
chain: AEDLQEILPVNETRRLTTSGAYNIIDGCWRGKADWAENRKALADCAQGFGKGTVGGKDGDIYTVTSELDDDVANPKEGTLRFGAAQNRPLWIIFERDMVIRLDKEMVVNSDKTIDGRGAKVEIINAGFTLNGVKNVIIHNINMHDVKVNPGGLIKSNDGPAAPRAGSDGDAISISGSSQIWIDHCSLSKSVDGLVDAKLGTTRLTVSNSLFTQHQFVLLFGAGDENIEDRGMLATVAFNTFTDNVDQRMPRCRHGFFQVVNNNYDKWGSYAIGGSASPTILSQGNRFCAPDERSKKNVLGRHGEAAAESMKWNWRTNKDVLENGAIFVASGVDPVLTPEQSAGMIPAEPGESALSLTSSAGVLSCQPGAPC
B1 had an IC50 in assay [1] of 0.04 µg/mL. In assay [2], this molecule returned an HR40 (concentration required to induce 40% histamine release), patient four of 0.0003 µg/mL; an HR40 (concentration required to induce 40% histamine release), patient one of 0.0002 µg/mL; an HR40 (concentration required to induce 40% histamine release), patient three of 0.0003 µg/mL; an HR40 (concentration required to induce 40% histamine release), patient two of 0.0002 µg/mL. In addition, the HR40, mean of four patients in assay [2] amounted to 0.0003 µg/mL.

B2: AIC-M (covalent conjugate of Amb a 1 and ISS-containing polynucleotide SEQ ID NO:1, medium extent of conjugation) (protein, ragweed, UniProt P27759 26-396, looked up)
chain: B1 chain
modifications: average of 3.5 to 4.5 oligonucleotides (5' thio ISS oligonucleotide, SEQ ID NO:1) per Amb a 1 molecule, linked through the heterobifunctional linker sSMCC; Amb a 1 blocked with N-ethyl maleimide before activation
In assay [1], B2 registered an IC50 of 0.12 µg/mL. Besides, the ratio of AIC-M to Amb a 1 for 50% inhibition in assay [3] was 3. In assay [2], the HR40 (concentration required to induce 40% histamine release), patient four stood at 0.07 µg/mL; the HR40 (concentration required to induce 40% histamine release), patient one was found to be 0.03 µg/mL; the HR40 (concentration required to induce 40% histamine release), patient three was found to be 0.03 µg/mL; the HR40 (concentration required to induce 40% histamine release), patient two was found to be 0.028 µg/mL. In assay [2], the HR40, mean of four patients turned out to be 0.0395 µg/mL and the Ratio AIC:Amb a 1 of HR40 worked out at 132 fold.

B3: AIC-L (covalent conjugate of Amb a 1 and ISS-containing polynucleotide SEQ ID NO:1, low extent of conjugation) (protein, ragweed, UniProt P27759 26-396, looked up)
chain: B1 chain
modifications: average of 2-3 oligonucleotides (5' thio ISS oligonucleotide, SEQ ID NO:1) per Amb a 1 molecule, linked through the heterobifunctional linker sSMCC; Amb a 1 blocked with N-ethyl maleimide before activation
As for B3, in assay [2], the HR40 (concentration required to induce 40% histamine release), patient four is 0.026 µg/mL; the HR40 (concentration required to induce 40% histamine release), patient one was found to be 0.02 µg/mL; the HR40 (concentration required to induce 40% histamine release), patient three is 0.01 µg/mL; the HR40 (concentration required to induce 40% histamine release), patient two was found to be 0.018 µg/mL. In addition, in assay [2], the HR40, mean of four patients came out at 0.0185 µg/mL and the Ratio AIC:Amb a 1 of HR40 came to 62 fold.

B4: AIC-H (covalent conjugate of Amb a 1 and ISS-containing polynucleotide SEQ ID NO:1, high extent of conjugation) (protein, ragweed, UniProt P27759 26-396, looked up)
chain: B1 chain
modifications: average of >5.5 oligonucleotides (5' thio ISS oligonucleotide, SEQ ID NO:1) per Amb a 1 molecule, linked through the heterobifunctional linker sSMCC; Amb a 1 blocked with N-ethyl maleimide before activation
B4: the ratio of AIC-H to Amb a 1 for 50% inhibition in assay [3] came to 4.75. For the same molecule, in assay [2], the HR40 (concentration required to induce 40% histamine release), patient four was above 1 µg/mL; the HR40 (concentration required to induce 40% histamine release), patient one stood at 0.5 µg/mL; the HR40 (concentration required to induce 40% histamine release), patient three is above 0.1 µg/mL; the HR40 (concentration required to induce 40% histamine release), patient two was above 0.1 µg/mL. Besides, in assay [2], the HR40, mean of four patients is above 0.425 µg/mL and the Ratio AIC:Amb a 1 of HR40 was above 1420 fold. Moreover, the IC50 in assay [4] turned out to be 0.19 µg/mL.

The IC50 is the concentration at which inhibition is half-maximal. Higher therefore signals a need for much substance.

Values taken from patent US7223398.
